Reference: patent US12325863B2, “MDA-7/IL-24 secretory variants and methods of use” (Virginia Commonwealth University, priority 2018, dated 2025)

Legend:
[1] = Sabutoclax and BI-97D6 in combination with MDA-7/IL-24; settings: combined with MDA-7/IL-24; earlier observation referred to
Method: To test a multi-target approach for treatment of prostate cancer bone metastases, experiments were conducted to target Mcl-1 inhibition and investigate the effects on NG-mda-7/IL-24 efficacy. […] In addition to these inhibitors, three commercially available targeted inhibitors were evaluated to determine potential synergistic effects with MDA-7/IL-24. […] Next, the therapeutic effect of MDA-7/IL-24 protein in combination with BI-97D6 was tested, in male athymic nude mice injected by the intracardiac route with human prostate cancer PC3-ML cells, resulting in bone metastases.

CD11b+Gr-1+ MDSCs = settings: single administration 5 mg/kg or 20 mg/kg i.p., 24 hours, spleen; FIG. 33
Method: 24 hrs. later, splenic CD11b+Gr-1+ MDSCs were assessed by FACS.
Twenty-four (24) hours later, splenic CD11b^+Gr-1^+ MDSCs were assessed by FACS.

[2] = tested on: prostate cancer bone metastases (RMI-Luc cells); assay: RM1-Luc bone metastases, OT-I T cells with or without MDA-7/IL-24 protein; type: in vivo, C57BL/6 mice; settings: OT-I in combination with protein i.v. 5 mg/kg body weight, 3 times; FIG. 29
Method: (§1) C57BL/6 mice established with experimental bone metastases via intratibial injection of ovalbumin-positive CaP RM1-Luc cells expressing luciferase were treated with OVA-specific T cells (OT-I) alone or in combination with recombinant MDA-7/IL-24 protein i.v. (5 mg/kg body weight, 3 times). Development of bone lesions was monitored by BLI. Luciferase intensity was quantified and is presented graphically.
as §1, with “intra-tibial” for “intratibial”, “prostate cancer RMI-Luc” for “CaP RM1-Luc”, “intravenously” for “i.v.”, “bioluminescent imaging (BLI) (FIG. 29 left panel).” for “BLI.”, “graphically (FIG. 29 graph).” for “graphically.”

CD8+ T cells = assay: 3H-thymidine incorporation in stimulated CD8+ T cells; type: cell-based; settings: anti-CD3/CD28 stimulation, 20 ng/ml, p<0.05; FIG. 31A
Method: (§2) FIGS. 31A-31B show example results illustrating that MDA-7/IL-24 promotes T cell expansion and activation. FIG. 31A: CD8+ T cells were stimulated with anti-CD3/CD28 antibodies in the presence or absence of purified MDA-7/IL-24 protein (20 ng/ml). Cell proliferation was measured using ^3H-thymidine (TdR) incorporation assays. p<0.05. FIG. 31B: C57BL/6 mice were injected i.v. with MDA-7/IL-24 protein (10 μg) or PBS. 48 h later, lymph node cells were assessed for IFN-γ-producing CD8+ T cells by intracellular staining.
(§3) In subsequent experiments, CD8^+ T cells were stimulated with anti-CD3/CD28 antibodies in the presence or absence of purified MDA-7/IL-24 protein (20 ng/ml). Cell proliferation was measured using ^3H-thymidine (TdR) incorporation assays. p<0.05. […] C57BL/6 mice were injected intravenously with MDA-7/IL-24 protein (10 μg) or PBS; 48 hours later, lymph node cells were assessed for IFN-γ-producing CD8^+ T cells by intracellular staining.

[3] = tested on: human prostate cancer PC3-ML cells; assay: PC3-ML intracardiac bone metastasis model in athymic nude mice; type: in vivo; settings: single agent, versus control group
Method: To test a multi-target approach for treatment of prostate cancer bone metastases, experiments were conducted to target Mcl-1 inhibition and investigate the effects on NG-mda-7/IL-24 efficacy. Using NMR (nuclear magnetic resonance) and computational biology, two Mcl-1 inhibitors were identified (Sabutoclax and BI-97D6) and their activity was validated in immune competent mice in combination with MDA-7/IL-24. In addition to these inhibitors, three commercially available targeted inhibitors were evaluated to determine potential synergistic effects with MDA-7/IL-24. The three inhibitors were UMI-77 (showing selectivity to Mcl-1 over other members of the Bcl-2 family), Marinopyrrole A (selective inhibitor of Mcl-1), and A-1210477. […] Mcl-1 expression was elevated by 1.7-fold in RM1-BM (RM1-BM cells selected for enhanced metastasis to bone) as compared to RM1 cells, indicating functional relevance of Mcl-1 in this metastatic process. […] This further supported the cancer-specificity of specific Mcl-1 inhibitors. Next, the therapeutic effect of MDA-7/IL-24 protein in combination with BI-97D6 was tested, in male athymic nude mice injected by the intracardiac route with human prostate cancer PC3-ML cells, resulting in bone metastases.

breast cancer cells = assay: ER stress response and surface calreticulin in breast cancer cells; type: cell-based, mouse
Source text: FIGS. 41A-41C show example images illustrating that MDA-7/IL-24 therapy enhances immunogenicity of mouse mammary tumors. FIG. 41A: immunogenic BCa cell death induced by MDA-7/IL-24 therapy. BALB/c mice were immunized with irradiated, Ad.mda-7 (1,2) or Ad.null (3,4) infected 4T1 cells (MOI=1), challenged with live 4T1 cells. The images were taken two weeks' post-tumor challenge. […] FIG. 41C: MDA-7/IL-24 therapy triggers the surface presence of CRT, assessed by immunofluorescence staining (left) and immunoblotting analysis of plasma membrane or cytosolic fractions (right).
Immunogenic breast cancer cell death was induced by MDA-7/IL-24 therapy. BALB/c mice were immunized with irradiated, Ad.mda-7 (mouse 1 and 2) or Ad.null (mouse 3 and 4) infected 4T1 cells (MOI=1), and then challenged with live 4T1 cells. The images were taken two weeks' post-tumor challenge.

[4] = tested on: IFN-γ-producing CD8+ T cells; assay: IFN-γ-producing CD8+ T cells in lymph nodes after i.v. protein; type: in vivo, C57BL/6 mice; settings: 10 μg i.v., 48 hours, lymph node cells; FIG. 31B
Method: as §2, §3

Row | Molecule | antitumor synergy [1] | frequency of CD11b+Gr-1+ MDSCs (CD11b+Gr-1+ MDSCs) | therapeutic potency of ATT on bone metastases (BLI) [2] | T cell proliferation (3H-thymidine incorporation) (CD8+ T cells) | bone metastases [3] | surface calreticulin (immunofluorescence, immunoblotting) (breast cancer cells; FIG. 41C) | ER stress response (breast cancer cells; GRP78/BiP, GRP170, FIG. 41B) | frequency of IFN-γ-expressing CD8+ T cells [4]
1 | Cc1cc2c(C(=O)NC[C@H](C)c3ccccc3)c(O)c(O)cc2c(O)c1-c1c(C)cc2c(C(=O)NC[C@H](C)c3ccccc3)c(O)c(O)cc2c1O [BI-97C1, Sabutoclax] | antitumor synergy | substantially reduced the frequency of CD11b^+Gr-1^+ MDSCs | – | – | – | – | – | –
2 | MDA-7/IL-24: Melanoma differentiation associated gene-7/Interleukin-24, secreted protein of the IL-10 family (protein) QEFHFGPCQVKGVVPQKLWEAFWAVKDTMQAQDNITSARLLQQEVLQNVSDAESCYLVHTLLEFYLKTVFKNYHNRTVEVRTLKSFSTLANNFVLIVSQLQPSQENEMFSIRDSAHRRFLLFRRAFKQLDVEAALTKALGEVDILLTWMQKFYKL | – | – | significantly enhanced the therapeutic potency of ATT | significantly enhanced the proliferation of T cells | statistically significant inhibition of bone metastases | triggers the surface presence of calreticulin (CRT) | upregulation of ER-resident chaperones | increased the frequency of IFN-γ-expressing CD8^+ T cells
